Data: PMC12206513 (Molecular Biology of the Cell, 2025)

What was measured:
[1] = molecular target: His6-importin α-CyPet / S-His6-importin β (UniProt P52292); test: FRET or BRET
[2] = molecular target: GFP-XCTK2 (full-length, wild type) (Xenopus) (UniProt P79955); test: co-sedimentation
[3] = molecular target: 6HisGFP-XCTK2-MBD2^mut (Xenopus) (UniProt P79955); test: co-sedimentation
[4] = molecular target: doubly stabilized microtubules (GMPCPP and paclitaxel) polymerized from cycled bovine tubulin (bovine, UniProt Q6B856 1-445); test: co-sedimentation

Chain of importin α-His6 / S-His6-importin β (Q14974 whole entry, one chain of several): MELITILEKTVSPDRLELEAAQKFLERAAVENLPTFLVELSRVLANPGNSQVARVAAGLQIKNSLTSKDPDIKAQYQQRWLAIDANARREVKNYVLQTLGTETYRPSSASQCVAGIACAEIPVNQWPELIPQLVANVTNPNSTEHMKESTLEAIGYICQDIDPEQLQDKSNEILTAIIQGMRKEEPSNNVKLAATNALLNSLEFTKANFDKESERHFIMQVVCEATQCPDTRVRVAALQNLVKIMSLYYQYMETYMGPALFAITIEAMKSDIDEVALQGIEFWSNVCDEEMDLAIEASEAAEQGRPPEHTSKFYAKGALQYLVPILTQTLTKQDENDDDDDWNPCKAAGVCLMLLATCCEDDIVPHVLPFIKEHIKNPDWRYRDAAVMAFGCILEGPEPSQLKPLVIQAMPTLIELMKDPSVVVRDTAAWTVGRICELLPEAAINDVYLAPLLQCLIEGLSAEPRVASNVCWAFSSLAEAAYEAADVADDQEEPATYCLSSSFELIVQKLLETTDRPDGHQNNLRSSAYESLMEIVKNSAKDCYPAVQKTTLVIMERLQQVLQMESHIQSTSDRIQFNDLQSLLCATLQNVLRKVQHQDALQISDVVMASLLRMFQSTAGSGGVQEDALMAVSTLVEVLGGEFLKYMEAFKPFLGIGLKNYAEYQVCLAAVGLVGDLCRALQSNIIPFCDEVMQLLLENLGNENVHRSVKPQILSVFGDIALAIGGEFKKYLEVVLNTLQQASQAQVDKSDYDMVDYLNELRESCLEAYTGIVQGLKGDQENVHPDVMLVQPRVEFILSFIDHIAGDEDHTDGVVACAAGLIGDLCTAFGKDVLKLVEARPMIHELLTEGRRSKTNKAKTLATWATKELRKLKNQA
Chain of GFP-XCTK2 (full-length, wild type) (Xenopus) (P79955 whole entry): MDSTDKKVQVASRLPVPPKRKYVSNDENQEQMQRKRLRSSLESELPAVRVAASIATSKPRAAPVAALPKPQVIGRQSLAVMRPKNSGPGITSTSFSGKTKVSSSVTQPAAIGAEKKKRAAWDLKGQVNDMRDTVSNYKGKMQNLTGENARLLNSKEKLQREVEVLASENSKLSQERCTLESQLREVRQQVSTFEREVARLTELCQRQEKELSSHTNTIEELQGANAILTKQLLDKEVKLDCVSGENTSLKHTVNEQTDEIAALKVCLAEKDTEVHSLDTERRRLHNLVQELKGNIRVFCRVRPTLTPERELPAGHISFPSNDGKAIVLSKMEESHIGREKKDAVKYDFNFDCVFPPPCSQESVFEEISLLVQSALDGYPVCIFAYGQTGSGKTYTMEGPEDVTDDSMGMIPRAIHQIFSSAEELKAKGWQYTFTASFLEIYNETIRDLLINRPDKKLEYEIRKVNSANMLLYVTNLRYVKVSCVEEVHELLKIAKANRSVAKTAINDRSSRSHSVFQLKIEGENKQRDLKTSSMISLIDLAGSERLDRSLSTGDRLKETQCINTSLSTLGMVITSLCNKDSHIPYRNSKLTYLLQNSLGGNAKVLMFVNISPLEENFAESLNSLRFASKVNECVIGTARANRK

Molecule	fold higher apparent Kd than YPet-Tail [1] [fold]	stoichiometry N [4] [per tubulin dimer]	further results
YPet-Tail C2 (from UniProt P79955 62-120) (domain or fragment)	8		
YPet-Tail C3 (from UniProt P79955 80-120) (domain or fragment)	8		
importin α-His6 / S-His6-importin β (from UniProt P52292 1-529; Q14974 1-876) (complex)			percent reduction of MT binding by 0.4 µM importin α/β [2]: 64%; percent reduction of MT binding by 0.4 µM importin α/β [3]: 43%
YPet-Tail C2 (domain or fragment, Xenopus, UniProt P79955 62-120, looked up) APVAALPKPQVIGRQSLAVMRPKNSGPGITSTSFSGKTKVSSSVTQPAAIGAEKKKRAA		1.1	
YPet-Tail N3 (domain or fragment, Xenopus, UniProt P79955 2-79, looked up) DSTDKKVQVASRLPVPPKRKYVSNDENQEQMQRKRLRSSLESELPAVRVAASIATSKPRAAPVAALPKPQVIGRQSLA		1.1	fold higher apparent MT affinity than YPet-Tail C2 [4]: ~2 fold
YPet-Tail N3-MBD1^mut (domain or fragment) DSTDKKVQVASRLPVPPAAAYVSNDENQEQMQAAALRSSLESELPAVRVAASIATSKPRAAPVAALPKPQVIGRQSLA			fold higher Kd than YPet-Tail N3 [4]: 10 fold
